Test results taken from PMC10753161.

How the values were obtained:
[1] = target: His-tagged StBIN2 protein (potato (Solanum tuberosum))
[2] = target: StBIN2-M (potato (Solanum tuberosum))

- StBIN2 kinase activity as ATP consumption (Kinase-Lumi), 5 μg StBIN2 with varying masses of StSN2 up to 15 μg, against StBIN2 alone [1]: 10 fold
- ATP consumed by StBIN2-M with StSN2 against StBIN2 with StSN2; 5 μg kinase + 5, 10 and 15 μg StSN2 (reduced by 63%, 14% and 12%) [2]: 63 % reduction
Substance: His-tagged StSN2 protein (from UniProt Q93X17 24-104) (natural protein)
